The target in one test is T1, ubiquitin (untagged) (UniProt P0CG48 1-76).
T1 construct: ubiquitin, untagged (pET3a), free C-terminus at Gly76; also called monoubiquitin; free ubiquitin; source: E. coli Rosetta 2, purified (perchloric acid, HiTrap SP, HiLoad S75)
The test can be described thus: ITC; 30 μM DUBm in the cell, 0.3 mM K48-linked diubiquitin or monoubiquitin injected; 25°C; 20 mM HEPES pH 7, 150 mM NaCl, 5 nM ZnCl2, 0.5 mM TCEP; one-site binding model. The following applies: both partners purified. On the technique in general: In ITC the heat of successive injections is recorded.

Test [1] concerns the target T2, N-terminally TAMRA-labeled monoubiquitin (UniProt P0CG48 1-76, TAMRA on the N-terminus).
T2 construct: ubiquitin with a free C-terminus; also called TAMRA-monoubiquitin; ubiquitin labeled with an N-terminal fluorophore
The test can be described thus: fluorescence polarisation; equilibrium binding of USP4 to TAMRA-labelled ubiquitin species; as described in ref. 32. The following applies: both partners purified. (Fluorescence polarisation rises when a labelled molecule tumbles more slowly, as on binding a larger partner.)

Residue numbers refer to the chain shown, from its start. Numbers in names are those of the source.

B1: SAGA DUB module containing wild-type Ubp8 (complex, yeast)
chain 1: MSICPHIQQVFQNEKSKDGVLKTCNAARYILNHSVPKEKFLNTMKCGTCHEINSGATFMCLQCGFCGCWNHSHFLSHSKQIGHIFGINSNNGLLFCFKCEDYIGNIDLINDAILAKYWDDVCTKTMVPSMERRDGLSGLINMGSTCFMSSILQCLIHNPYFIRHSMSQIHSNNCKVRSPDKCFSCALDKIVHELYGALNTKQASSSSTSTNRQTGFIYLLTCAWKINQNLAGYSQQDAHEFWQFIINQIHQSYVLDLPNAKEVSRANNKQCECIVHTVFEGSLESSIVCPGCQNNSKTTIDPFLDLSLDIKDKKKLYECLDSFHKKEQLKDFNYHCGECNSTQDAIKQLGIHKLPSVLVLQLKRFEHLLNGSNRKLDDFIEFPTYLNMKNYCSTKEKDKHSENGKVPDIIYELIGIVSHKGTVNEGHYIAFCKISGGQWFKFNDSMVSSISQEEVLKEQAYLLFYTIRQVN
chain 2: MTEETITIDSISNGILNNLLTTLIQDIVARETTQQQLLKTRYPDLRSYYFDPNGSLDINGLQKQQESSQYIHCENCGRDVSANRLAAHLQRCLSRGARR
chain 3: MTMDTAQLKSQIQQYLVESGNYELISNELKARLLQEGWVDKVKDLTKSEMNINESTNFTQILSTVEPKALEMVSDSTRETVLKQIREFLEEIVDTQ
chain 4: MRSGDAEIKGIKPKVIEEYSLSQGSGPSNDSWKSLMSSAKDTPLQYDHMNRESLKKYFNPNAQLIEDPLDKPIQYRVCEKCGKPLALTAIVDHLEN
notes: Ubp8, catalytic USP subunit of the yeast SAGA DUB module; Sgf11, subunit of the yeast SAGA DUB module (pCDFDuet-1 MCSI); Sus1, subunit of the yeast SAGA DUB module (pRSF-1); Sgf73 residues 1-96, subunit of the yeast SAGA DUB module (pCDFDuet-1 MCSII); Heterotetramer; also called DUBm-Ubp8^WT; wild-type DUBm; copies: + + +
One may read the Kd as a measure of binding affinity in units of concentration. A high value points to lower affinity. As for B1, in the test with ubiquitin (untagged), binding was put at a Kd of 13.9 µM.

B2: SAGA DUB module containing Ubp8^C146A (complex, yeast)
chain 1: B1 chain 1 with C146A
chain 2: B1 chain 2
chain 3: B1 chain 3
chain 4: B1 chain 4
notes: Ubp8, catalytic USP subunit of the yeast SAGA DUB module, active site cysteine changed; Sgf11, subunit of the yeast SAGA DUB module (pCDFDuet-1 MCSI); Sus1, subunit of the yeast SAGA DUB module (pRSF-1); Sgf73 residues 1-96, subunit of the yeast SAGA DUB module (pCDFDuet-1 MCSII); Heterotetramer; also called DUBm-Ubp8^C146A; DUB module-Ubp8^C146A; copies: + + +
For the molecule B2, the affinity in the test with ubiquitin (untagged), expressed as Kd, was 0.43 µM.

B3: SAGA DUB module containing Ubp8^C146S (complex, yeast)
chain 1: B1 chain 1 with C146S
chain 2: B1 chain 2
chain 3: B1 chain 3
chain 4: B1 chain 4
notes: Ubp8, catalytic USP subunit of the yeast SAGA DUB module, active site cysteine changed; Sgf11, subunit of the yeast SAGA DUB module (pCDFDuet-1 MCSI); Sus1, subunit of the yeast SAGA DUB module (pRSF-1); Sgf73 residues 1-96, subunit of the yeast SAGA DUB module (pCDFDuet-1 MCSII); Heterotetramer; also called DUBm-Ubp8^C146S; copies: + + +
Consider B3, for which the Kd with ubiquitin (untagged) came out at 12.8 µM.

B4: USP4 (8-925) C311A (enzyme, human, UniProt Q13107 8-925, looked up)
chain: RERPDAETQKSELGPLMRTTLQRGAQWYLIDSRWFKQWKKYVGFDSWDMYNVGEHNLFPGPIDNSGLFSDPESQTLKEHLIDELDYVLVPTEAWNKLLNWYGCVEGQQPIVRKVVEHGLFVKHCKVEVYLLELKLCENSDPTNVLSCHFSKADTIATIEKEMRKLFNIPAERETRLWNKYMSNTYEQLSKLDNTVQDAGLYQGQVLVIEPQNEDGTWPRQTLQSKSSTAPSRNFTTSPKSSASPYSSVSASLIANGDSTSTCGMHSSGVSRGGSGFSASYNCQEPPSSHIQPGLCGLGNLGNTAFMNSALQCLSNTAPLTDYFLKDEYEAEINRDNPLGMKGEIAEAYAELIKQMWSGRDAHVAPRMFKTQVGRFAPQFSGYQQQDSQELLAFLLDGLHEDLNRVKKKPYLELKDANGRPDAVVAKEAWENHRLRNDSVIVDTFHGLFKSTLVCPECAKVSVTFDPFCYLTLPLPLKKDRVMEVFLVPADPHCRPTQYRVTVPLMGAVSDLCEALSRLSGIAAENMVVADVYNHRFHKIFQMDEGLNHIMPRDDIFVYEVCSTSVDGSECVTLPVYFRERKSRPSSTSSASALYGQPLLLSVPKHKLTLESLYQAVCDRISRYVKQPLPDEFGSSPLEPGACNGSRNSCEGEDEEEMEHQEEGKEQLSETEGSGEDEPGNDPSETTQKKIKGQPCPKRLFTFSLVNSYGTADINSLAADGKLLKLNSRSTLAMDWDSETRRLYYDEQESEAYEKHVSMLQPQKKKKTTVALRDCIELFTTMETLGEHDPWYCPNCKKHQQATKKFDLWSLPKILVVHLKRFSYNRYWRDKLDTVVEFPIRGLNMSEFVCNLSARPYVYDLIAVSNHYGAMGVGHYTAYAKNKLNGKWYYFDDSNVSLASEDQIVTKAAYVLFYQRRDD
notes: human USP4, residues 8-925, active site cysteine C311 changed to alanine; also called USP4^C311A; USP4 C311A
As for B4, in test [1], the Kd is 0.0006 ± 0.00017 µM.

These data come from paper PMC6172466 (EMBO Reports, 2018).
